This note sets out measurements from paper PMC7401805, “Tissue specific requirement of Drosophila Rcd4 for centriole duplication and ciliogenesis” (The Journal of Cell Biology, 2020).

Experiment [1] deals with T1, MBP-tagged Ana3-C1 fragment (amino acids 1195-1977) (Drosophila melanogaster, UniProt A1Z8X3 1195-1977).
T1 construct: Vector pKM596; also called MBP::Ana3 C1; Ana3-C terminal 1; source: E. coli Rosetta BL21(DE3), purified; not shown: MBP, N-terminal, kept
T1 sequence (looked up): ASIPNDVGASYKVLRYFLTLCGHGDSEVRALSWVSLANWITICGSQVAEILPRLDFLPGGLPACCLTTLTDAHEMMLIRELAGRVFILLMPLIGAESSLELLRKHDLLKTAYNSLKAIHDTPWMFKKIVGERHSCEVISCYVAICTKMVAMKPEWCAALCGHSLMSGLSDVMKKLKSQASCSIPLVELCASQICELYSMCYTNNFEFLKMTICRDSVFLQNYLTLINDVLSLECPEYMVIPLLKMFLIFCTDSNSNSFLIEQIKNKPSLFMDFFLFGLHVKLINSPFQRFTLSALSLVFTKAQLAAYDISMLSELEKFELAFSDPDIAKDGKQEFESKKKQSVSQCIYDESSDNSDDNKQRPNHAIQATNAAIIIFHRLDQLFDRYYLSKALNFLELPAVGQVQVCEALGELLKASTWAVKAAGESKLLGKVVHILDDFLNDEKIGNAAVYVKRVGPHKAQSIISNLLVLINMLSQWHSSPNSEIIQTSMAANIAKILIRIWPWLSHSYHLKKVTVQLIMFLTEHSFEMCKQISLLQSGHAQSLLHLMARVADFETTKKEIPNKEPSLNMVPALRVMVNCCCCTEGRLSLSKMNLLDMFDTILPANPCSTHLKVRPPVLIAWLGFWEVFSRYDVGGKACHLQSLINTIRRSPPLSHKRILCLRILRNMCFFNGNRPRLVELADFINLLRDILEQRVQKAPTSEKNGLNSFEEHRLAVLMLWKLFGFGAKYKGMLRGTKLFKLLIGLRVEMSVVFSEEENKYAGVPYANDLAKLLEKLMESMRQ
Description: pull-down; GST-Rcd4 held on glutathione-sepharose 4B beads, MBP-tagged Ana3 fragment added, 1 h at 4°C; 20 mM Tris pH 7.5, 200 mM NaCl, 1 mM DTT, 10% glycerol; SDS-PAGE (Coomassie) and anti-MBP Western blot. To be noted: both partners purified. (A western blot detects proteins with antibodies after separation by electrophoresis.)

For experiment [2], the target named is T2, GST-tagged full-length Ana3 (Drosophila melanogaster, UniProt A1Z8X3 1-1977).
T2 construct: Ana3, Drosophila melanogaster; also called GST::Ana3; GST-Ana3; source: S. cerevisiae (plasmid pMG1): coexpressed with 6xHis-Rcd4, in crude extract; also expressed alone and purified on glutathione beads
Put plainly: pull-down; full-length GST-Ana3 purified from S. cerevisiae incubated with MBP-Rcd4 purified from E. coli; GST::Ana3 purified, SDS-PAGE (Coomassie) and Western blot for MBP::Rcd4. To be noted: both partners purified.

B1: GST-tagged Rcd4 (natural protein, Drosophila melanogaster, UniProt Q9VLM6 1-199, looked up)
chain: MPHKRRNRVHANQRNFTARRVSVAKLSSAPPNVLVESCNGSHADNSSPDSPKAKEGAMTNGKNPEIKLAVPKCNTTVRKQNEAHIISNIKLDMNLNKDSNFIAPQITKKMNFAPNRVVFGVLVPLNVNDSVLVPHNRKPDALKHTSKESESCKAISEPQLADYAEKVDPMIMAVKEPVLHLDWEPGPFDFFGAYRRTYN
notes: Rcd4, Drosophila melanogaster; 199 amino acid protein; also called GST::Rcd4; GST-Rcd4; source: E. coli Rosetta BL21(DE3), purified on glutathione-sepharose 4B beads; not shown: GST, N-terminal, kept
Regarding B1, the binding result in experiment [1] is reported as “binds”.

B2: MBP-tagged Rcd4 (natural protein, Drosophila melanogaster, UniProt Q9VLM6 1-199, looked up)
chain: MPHKRRNRVHANQRNFTARRVSVAKLSSAPPNVLVESCNGSHADNSSPDSPKAKEGAMTNGKNPEIKLAVPKCNTTVRKQNEAHIISNIKLDMNLNKDSNFIAPQITKKMNFAPNRVVFGVLVPLNVNDSVLVPHNRKPDALKHTSKESESCKAISEPQLADYAEKVDPMIMAVKEPVLHLDWEPGPFDFFGAYRRTYN
notes: Rcd4, Drosophila melanogaster; 199 amino acid protein; also called MBP::Rcd4; MBP-Rcd4; source: E. coli Rosetta BL21(DE3), purified; not shown: MBP, N-terminal, kept
Take B2: in experiment [2], the binding result was “binds”.
